The Kd is the equilibrium constant for the complex coming apart. For orientation: koff means a measure of how fast the partners let go of each other. Higher therefore signals fast dissociation.

Consider 2 substances from publication PMC11055898.

Among the targets are human FcRn; mouse CD16-2; mouse CD64.
Assay in all cases: SPR
(SPR reads the build-up and loss of mass on a sensor chip optically.)

Test [1] has as its target human CD64 (FcgRI) (human) (UniProt P12314).
Test [2] addresses mouse neonatal Fc receptor (FcRn) (mouse) (UniProt Q61559).

Sequence of human CD64 (FcgRI) (human) (P12314 16-374): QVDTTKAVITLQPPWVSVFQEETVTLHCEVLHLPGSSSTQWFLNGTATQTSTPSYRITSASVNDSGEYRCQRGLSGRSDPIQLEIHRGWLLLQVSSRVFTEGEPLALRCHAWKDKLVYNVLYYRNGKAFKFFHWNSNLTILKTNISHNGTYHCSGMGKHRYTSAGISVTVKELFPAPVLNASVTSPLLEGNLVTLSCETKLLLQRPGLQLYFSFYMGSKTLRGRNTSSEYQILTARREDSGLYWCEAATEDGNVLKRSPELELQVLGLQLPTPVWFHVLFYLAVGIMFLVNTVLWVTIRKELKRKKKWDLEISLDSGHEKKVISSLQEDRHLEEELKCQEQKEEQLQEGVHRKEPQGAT
Sequence of human IgG3 (antibody specific for the receptor binding domain of SARS-CoV-2, clone not named) (P01860 whole entry, looked up, the tested form may be a part): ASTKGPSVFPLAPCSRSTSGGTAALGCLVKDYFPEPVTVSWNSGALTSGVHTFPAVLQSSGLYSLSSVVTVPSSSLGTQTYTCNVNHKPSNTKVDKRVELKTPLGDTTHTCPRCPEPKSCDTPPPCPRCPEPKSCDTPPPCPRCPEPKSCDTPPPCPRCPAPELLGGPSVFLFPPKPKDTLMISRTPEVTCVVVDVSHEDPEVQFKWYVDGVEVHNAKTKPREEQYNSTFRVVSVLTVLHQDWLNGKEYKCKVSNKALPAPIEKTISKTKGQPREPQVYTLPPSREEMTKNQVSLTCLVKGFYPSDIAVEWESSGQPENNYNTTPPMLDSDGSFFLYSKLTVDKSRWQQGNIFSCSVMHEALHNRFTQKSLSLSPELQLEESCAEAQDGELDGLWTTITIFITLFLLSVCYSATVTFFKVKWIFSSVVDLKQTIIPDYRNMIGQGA
Sequence of mouse neonatal Fc receptor (FcRn) (mouse) (Q61559 22-297): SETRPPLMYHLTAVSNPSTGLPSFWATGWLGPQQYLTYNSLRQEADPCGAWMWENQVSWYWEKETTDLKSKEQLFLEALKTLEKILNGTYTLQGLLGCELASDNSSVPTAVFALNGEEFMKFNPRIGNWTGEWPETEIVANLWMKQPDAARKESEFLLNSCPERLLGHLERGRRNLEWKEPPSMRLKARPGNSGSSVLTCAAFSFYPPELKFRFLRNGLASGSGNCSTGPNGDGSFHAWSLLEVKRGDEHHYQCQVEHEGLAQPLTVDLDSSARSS

Consider “human IgG1 (antibody specific for the receptor binding domain of SARS-CoV-2, clone not named) (from UniProt P01857)”, for which the Kd in test [1] amounted to 2.4 nM; with human FcRn, 300 nM; with mouse CD16-2 it was 415 nM; with mouse CD64, 246 nM; in test [2], 9.9 nM. In addition, the koff in test [1] was determined as 0.00014 s⁻¹; with human FcRn it was 0.088 s⁻¹; in the test with mouse CD16-2, 0.0275 s⁻¹; with mouse CD64, 0.062 s⁻¹; in test [2] it was 0.001 s⁻¹.
Regarding “human IgG3 (antibody specific for the receptor binding domain of SARS-CoV-2, clone not named) (from UniProt P01860)”, the dissociation constant (Kd) in test [1] was 8.1 nM; with mouse CD64 it was 14 nM. Besides, the values for the off-rate constant (koff) (in test [1]; with mouse CD64) were 0.00033 s⁻¹ and 0.0014 s⁻¹, respectively.
